From the nanobody polyreactivity screen of Harvey et al. (2022)

Experiment: yeast display, Sf9 membrane polyspecificity reagent, FACS + sequencing; frameworks hold sequencing errors
Procedure, shortened: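 Genes from sorted yeast were amplified by colony PCR, read by MiSeq 2 × 250 sequencing and filtered on CDR length. These cells carried a synthetic nanobody library in Saccharomyces cerevisiae BJ5465 and were sorted by FACS into low and high (top ~1%) gates on anti-HA and streptavidin fluorescence. Polyreactivity is labelled according to the gate of origin.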

Sequence | polyreactivity (PSR sort gate)
QVQLVESGGGLVQAGGSLRLSCAASGFIFRKYVMGWYRQAPGKERELVAAITRSGTSTYYADSVKGRFTISRDNAKNTVYLQMNSLKPEDNAVYYCNVGSDGWYYWGQGTQVTVSS | low polyreactivity
QVQLVESGGGLVQAGGSLRLSCAASGFIFRLYAMGWYRQAPGKERELVAAISGRGGNTYYADSVKGRFTISRDNAKNTVYLQMNSLKPEDTAVYYCAADRPGTGYSDYDYWGQGTQVTVSS | high polyreactivity
QVQLVESGGGLVQAGGSLRLSCAASGFIFRLYAMGWYRQAPGKERELVAAISRGGSTTYADSVKGRFTISRDNAKNTVYLQMNSLKPEDTAVYYCATEGDYVAYLYDYWGQGTQVTVSS | low polyreactivity
QVQLVESGGGLVQAGGSLRLSCAASGFIFRPNAMGWYRQAPGKERELVAAITRDGDRTYYADSVKGRFTISRDNAKNTVYLQMNSLKPEETAVYYCAADVIQWWTRYYTWEYDYWGQGTQVTVSS | low polyreactivity
QVQLVESGGGLVQAGGSLRLSCAASGFIFRPYAMGSYRQAPGKERELVAAISYGDGITYYADSVKGRFTISRDNAKNTVYLQMNSLKPEDTAVYYCAAEYVSHFSGYRYDYWGQGTQVTVSS | low polyreactivity
QVQLVESGGGLVQAGGSLRLSCAASGFIFRPYTMGWYRQAPGKERELVAAITYSGGSSTYYADSVKGRFTISRDNAKNTVYLQMNSLKPEDTAVSYCATTPDYGHDYWGQGTQVTVSS | low polyreactivity
QVQLVESGGGLVQAGGSLRLSCAASGFIFRPYVMGWYRQAPGTERELVAAISRSGSSTYYADSVKGRFTISRDNAKNTVYLQMNSLKPEDTAVYYCARRTSQEFDYWGQGTQVTVSS | high polyreactivity
QVQLVESGGGLVQAGGSLRLSCAASGFIFRQDAMGWYRQAPGKERELVAAISWRGGSTYYADSVKGRFTISRDNAKNTEYLQMNSLKPEDTAVYYCATRQTKYSNYRGDYWGQGTQVTVST | high polyreactivity
QVQLVESGGGLVQAGGSLRLSCAASGFIFRQYAMGWYRQAPGKERELVAAISWSGGSTYYADSVKGRFTISRDNAKNTVYLQMNSLKPEDTAVYYCNVLTPPTDYDYWGQGTQVTVSS | high polyreactivity
QVQLVESGGGLVQAGGSLRLSCAASGFIFRRNAMGWYRQAPGKERELVAAISRSGGRTYYADSVKGRFTISRDNAKNTVYLQMNSLKPEDTAVYYCAAEYTDKYEYWGQGTQVTVSS | high polyreactivity
QVQLVESGGGLVQAGGSLRLSCAASGFIFRRYAMGWYRQAPGKERDLVAAIRSDRSTNYADSVKGRFTISLDNAKNTVYLQMNSLKPEDTAVYYCARPYRSHYGWGVRGFDYWGQGTQVTVSS | high polyreactivity
QVQLVESGGGLVQAGGSLRLSCAASGFIFRRYAMGWYRQAPGKERELVAAISWRSGSTYYADSVKGRFTISRDNAKNTVYLQMNSLKPEDTAVYYCAAKDQATYQLNYWGQGTQVTVSS | high polyreactivity
QVQLVESGGGLVQAGGSLRLSCAASGFIFRSYAMGWYRPAPGKERELVAAITKSGGRTYYADSVKGRFTISRDNAKNTVYLQMNSLKPEDTAVYYCAADQTSYSTSRRYDYWGQGTQVTVSS | high polyreactivity
QVQLVESGGGLVQAGGSLRLSCAASGFIFRSYAMGWYRQAPGKERELVAAITSGGRTFYADSVKGRFTISRDNAKNTVYLQMNSLKPEDTAVYYCAAGGYRTGFNYWGQGTQVTVSS | high polyreactivity
QVQLVESGGGLVQAGGSLRLSCAASGFIFRTYAMGWYRQAPGKEREFVAAISSGSSTYYADSEKGRFTISRDNANNSVYLQMISLKPEDTAVYYCAARVPQQSRTWRGSTRSYRYGYWGQGTQVTVSS | high polyreactivity
QVQLVESGGGLVQAGGSLRLSCAASGFIFRTYAMGWYRQAPGTERELVATITGDGSTNYADSVKGRFTISRDNAKNTVYLQMNSLKPEDTAVYYCSRDDRLAGDYWGQGTQVTVSS | low polyreactivity
QVQLVESGGGLVQAGGSLRLSCAASGFIFRVNAMGWYRQAPGKEREFVAAITYSGGRTSYADSVKGRFTISRDNAKNTVYLQMNSLKPEDTAVYYCAALLYKPSVHAKYYYWGQGTQVTVSS | high polyreactivity
QVQLVESGGGLVQAGGSLRLSCAASGFIFRYAMGWYRQAPGKERELVAAISSSGGSTNYADSVKGRFTISRDNAKNTVYLQMNSLKPEDTAVYYCAARDGRQPRGYRLVTYYAPMYYWGQGTQVTVSS | high polyreactivity
QVQLVESGGGLVQAGGSLRLSCAASGFIFRYNAMAWYRQAPGKERELVAAIDSGGSTYYADSVKGRFTISRDNAKNTVYLQMNSMKPEDNAVYYCNAVVEASYPCVDYWGQGTQVTVSS | low polyreactivity
QVQLVESGGGLVQAGGSLRLSCAASGFIFRYYAMGRYRQAPGKERELVAAISYSGGSTYYADSVKGRFTFSRDNAKNTVYLQINSMKPEDTAVYYCAKYTTSVYKQSLQQGYDYWGQGTQVSVSS | high polyreactivity
QVQLVESGGGLVQAGGSLRLSCAASGFIFRYYAMGWYRQAPGKEREFVAAISRSGSSTYYADSVKGRFTISRDNAKNTVYLQMNSLKPEDTAVYYCNARKYRKGYGYWGQGTQVTVSS | high polyreactivity
QVQLVESGGGLVQAGGSLRLSCAASGFIFRYYAMGWYRQAPGKERELVAAISGNGGNTYYADSVKGRFTISRDNAKNTVYLQMNSLKPEDTAVYNCNRAPGYRGGRYDYWGQGTQVTVSS | high polyreactivity

Sequence | polyreactivity (PSR sort gate)
QVQLVESGGGLVQAGGSLRLSCAASGFIFRYYAMGWYRQAPGKERELVAAISGSGGGTYYADSVKGRFTISRDNAKNTVYLQMNSLKPEDTAVYYCAAGSTSGYFRYYYWGQGSQVTVSS | high polyreactivity
QVQLVESGGGLVQAGGSLRLSCAASGFIFRYYAMGWYRQAPGKERELVAAISRSGGSTYYADSVKGRFTISRDNAKNTVYLQMNSLKPEDTAVYYCNKDPRGRIPVPGTWIMDYWGQGTQVTVSS | high polyreactivity
QVQLVESGGGLVQAGGSLRLSCAASGFIFRYYAMGWYRQAPGKERELVAAISSSGGCTYYADSVKGRFTISRDNSKNTVYLLMNRMKPEDTAVYFCAARDLRKLFSLYPYYYWGQGTHVTVSS | high polyreactivity
QVQLVESGGGLVQAGGSLRLSCAASGFIFRYYAMGWYRQAPGKERELVAAISWSGGSTYYADSVKGRFTISRDNAKNTVYLQMNSLKPEDTAVYYCNAVTTYGEYDYWGQGTQVTVSS | high polyreactivity
QVQLVESGGGLVQAGGSLRLSCAASGFIFRYYAMGWYRQAPGKERELVAAISYSGGYTYYADSVKGRFTISRDNAKNTVYLQMNSLKPEDTAVYYCAAVLRTRDHPQPNYEYWGQGTQVTVSS | high polyreactivity
QVQLVESGGGLVQAGGSLRLSCAASGFIFRYYAMGWYRQAPGKERELVAAITNSGVSTYYADSVKGRFTISRDNAKNTVYLQMNSLKPEDTAVYYCAATYRTRTSQYDYWGQGTQVTVSS | high polyreactivity
QVQLVESGGGLVQAGGSLRLSCAASGFIFRYYAMGWYRQAPGKERELVATISSGGGTHYADSVKGRFTISRDNAKNTVYLQMNCLKPEDTAVYYCNKVSYRRRSVLLHYDYWGQGTQVTVSS | high polyreactivity
QVQLVESGGGLVQAGGSLRLSCAASGFIFRYYAMGWYRQAPWKERELVASITRSGGRTYYADSVKGRFTISRDNAKNTVYLQMNSLKPEDTAVYYCAARHYRSEYEYDYWGQGTQVTVSS | high polyreactivity
QVQLVESGGGLVQAGGSLRLSCAASGFIFRYYARGWYRQGPGKERELVAAIDESGGSTYYADSVKGSFTISRDNSKKTVYLQMNSLKAVDTEVYYCAAYSNFYLNYGYGYWGQVTQVTVSS | high polyreactivity
QVQLVESGGGLVQAGGSLRLSCAASGFIFRYYTMGWYRQAPGKERELVATITSGGSTYYADSVKGRFTISRDNAKNTVYVQMNSLKPEDTAVYYCAKVRDVLWRFNYWGQGTQVTVSS | high polyreactivity
QVQLVESGGGLVQAGGSLRLSCAASGFIFSANAMGWYRQAPGKERELVAVISWNGDGTYYADSVKGRFTISRDNAKNTVYLQMNSLKAEDTAVYYCAALSYAYRSQSRRYGYRFDYWGQGTQVTVSS | high polyreactivity
QVQLVESGGGLVQAGGSLRLSCAASGFIFSAYVMGWYRQAPGKERELVAAISQSGARTYYADSVKGRFTISRDNAKNTVYLQMNSLKPEDTAVYYCAADRRDFRTYDYWGQGTQVTVSS | high polyreactivity
QVQLVESGGGLVQAGGSLRLSCAASGFIFSCYAMGWYRQAPGKERELFAAISSSGVSTYYADSVKGRFTISRDNAKNTVYLHMNSLKPEDTAVNYCNAYGSVWDRGEYDYEYWGQGTQVTVSS | low polyreactivity
QVQLVESGGGLVQAGGSLRLSCAASGFIFSDNAMGWYRQAPGKERELVSAITDDGDTTYYADSVKGRFTISRDNAKNTVYLQMNSLKPEDTAVYYCATEIEDDESSGPYYYVGYGYWGQGTQVTVSS | high polyreactivity
QVQLVESGGGLVQAGGSLRLSCAASGFIFSGNAMGWYRQAPGKERELVATITTGGTTKYADSVKGRFTISRDNAKNTVYLQMNSLKPEDTAVYYFAKSWSYWYQYYYWGQGTQVTVSS | low polyreactivity
QVQLVESGGGLVQAGGSLRLSCAASGFIFSGYAMGWSRQAPGKERELVAAITWSGSNTFYADSVKGRFTISRDNAKNTVYLQMNSLKPEDTAVYYCNAVSKYKRSDYYYWGQGTQVTVSS | high polyreactivity
QVQLVESGGGLVQAGGSLRLSCAASGFIFSGYAMGWYRQAPGKEREFVAAISWSGSSTYYADSVKGRFTISRDNAKNTVYLQMNSLKPEDTALYYCNAVRQHPPRYSRYDYWGQGTQVTVSS | high polyreactivity
QVQLVESGGGLVQAGGSLRLSCAASGFIFSGYAMGWYRQAPGKERELVATISGSGGSTYYADSVKGRFTISRDNAKNTVYLQMNSLKPEDTAVYYCAARQRGGYGYWGQGTQVTVSS | high polyreactivity
QVQLVESGGGLVQAGGSLRLSCAASGFIFSGYAMGWYRQAPGKERELVATISGSGGSTYYADSVKGRFTISRDNAKNTVYLQMNSLKPEDTAVYYCAKRSIVGYRYSGYDYWGQGTQVTVSS | high polyreactivity
QVQLVESGGGLVQAGGSLRLSCAASGFIFSGYAMGWYRQAPGKEWELVAAISRRGGSTYYADSVKGRFTISRDNAKNTVYLQMNSLKPEDTAVYYCARTTRGSYGKFYYWGQGTQVTVSS | high polyreactivity
QVQLVESGGGLVQAGGSLRLSCAASGFIFSHYTMGWYRQAPGKERELVAGISWSGGNTYYADSVKGRFTISRDNAKNTVYLQMISLKPEDTAVYYCNADWIGVPLAYDYWGQGTQVTVSS | low polyreactivity
